Experimental findings from paper PMC6416899 are described below.

The target in the assay is PtoMYB221 fused to Cub (split-ubiquitin bait) (Populus tomentosa).

The substance “full-length PtoUBC34 fused to Nub (split-ubiquitin prey) (from UniProt A0A482P071 1-235) (enzyme)” showed a decrease in LUC activity by 2.56 μg PtoMYB221 effector plasmid against the control without PtoMYB221, with 600 to 1200 ng PtoUBC34 (35.16% with 1200 ng; 72.66% when no exogenous PtoUBC34 was added) of 54.8%.
